The values below come from FireProtDB.

The conditions of this data set: whole UniProt chain shown.
Where [1] appears, read: Homo sapiens, pH 8.1, Thermal, DSC, Tris-HCl 20 mM.
Setting [2] is: Hordeum vulgare, pH 6.3, 25 °C, GdnHCl, DSC, MES-NaOH 50 mM, reversible: yes.
[3] abbreviates: Hordeum vulgare, pH 6.3, 25 °C, GdnHCl, Fluorescence, Sodium phosphate 20 mM.
Setting [4] is: Hordeum vulgare, pH 7, 25 °C, GdnHCl, CD, Sodium phosphate 10 mM, reversible: yes.
Where [5] appears, read: Hordeum vulgare, pH 7, 30 °C, GdnHCl, Fluorescence, MOPS 50 mM.
The mark [6] stands for this setting: Hordeum vulgare, pH 7.4, 25 °C, GdnHCl, CD, Tris 50 mM.
Setting [7] is: Homo sapiens, pH 8, 25 °C, GdnHCl, CD, Tris-Hcl, transition: 2.
[8] abbreviates: Homo sapiens, pH 8, 25 °C, GdnHCl, fluorescence, Tris-Hcl, transition: 2.
Where [9] appears, read: Homo sapiens, pH 7.5, 25 °C, Urea, CD, HEPES 20 mM, NaCl 100 mM, reversible: no.
Where [10] appears, read: Homo sapiens, pH 7.5, 25 °C, Urea, CD, Sodium phosphate 15 mM, NaCl 100 mM, reversible: yes.
Setting [11] is: Homo sapiens, pH 8, Thermal, CD, Tris-HCl 10 mM.
[12] abbreviates: Homo sapiens, pH 7.8, Thermal, DSC, Potassium phosphate 2 mM, reversible: yes.

Residue numbers refer to the chain shown, from its start. “And” between values parts separate entries of the source, which are not always exact repeats. Equal values may be shown once.

B1: Cystatin-A wild type, P01040 (protein)
chain: MIPGGLSEAKPATPEIQEIVDKVKPQLEEKTNETYGKLEAVQYKTQVVAGTNYYIKVRAGDNKYMHLKVFKSLPGQNEDLVLTGYQVDKNKDDELTGF
For B1, under setting [1], the melting temperature (Tm) (usually the temperature at which the thermal transition is half complete) is 94.5 °C, the “heat capacity change of unfolding” value was determined as 1.5 kcal/mol/K and the “unfolding enthalpy (calorimetric)” value amounted to 122 kcal/mol.

B2: wild type, Q40059 (protein)
chain: MSSMEKKPEGVNIGAGDRQNQKTEWPELVGKSVEEAKKVILQDKPAAQIIVLPVGTIVTMEYRIDRVRLFVDRLDNIAQVPRVG
B2: the midpoint of thermal melting (Tm) (Hordeum vulgare, pH 4.15, Thermal, CD, acetate 10 mM, reversible: no) was determined as 74.3 °C. Further, under setting [2], the denaturant m value was 1.76 kcal/mol/M, the “denaturant midpoint (higher = more stable)” value (from here on “denaturant midpoint”) was 4.05 M and the unfolding free energy stood at 7.16 kcal/mol. Under setting [3], the denaturant m value was 1.96 kcal/mol/M and 2.01 kcal/mol/M; the unfolding free energy is 7.41 kcal/mol and 7.27 kcal/mol and 7.22 kcal/mol.

B3: Subtilisin-chymotrypsin inhibitor-2A wild type, P01053 (protein)
chain: B2 chain with M4V, I13T, Q19H, Q21L, A46E, R73K
Consider B3, for which the unfolding free energy is, setting by setting: (Hordeum vulgare, pH 4.2, 50 °C, GdnHCl, Fluorescence, Sodium acetate 50 mM, reversible: yes) 5.5 kcal/mol; (Hordeum vulgare, pH 6.3, 17 °C, GdnHCl, Fluorescence, MES 10 mM, reversible: yes) 7.47 kcal/mol; (Hordeum vulgare, pH 6.3, 21 °C, GdnHCl, Fluorescence, MES 10 mM, reversible: yes) 7.28 kcal/mol; (Hordeum vulgare, pH 6.3, 25 °C, GdnHCl, Fluorescence, MES 10 mM, reversible: yes) 7.04 kcal/mol; (Hordeum vulgare, pH 6.3, 29 °C, GdnHCl, Fluorescence, MES 10 mM, reversible: yes) 6.76 kcal/mol; (Hordeum vulgare, pH 6.3, 32 °C, GdnHCl, Fluorescence, MES 10 mM, reversible: yes) 6.52 kcal/mol. The unfolding free energy runs as follows: under setting [4], 7.04 kcal/mol; under setting [5], 7.05 kcal/mol; under setting [6], 7.81 kcal/mol. In addition, the denaturant m value is 1.77 kcal/mol/M under setting [4], 1.92 kcal/mol/M under setting [5] and 1.82 kcal/mol/M under setting [6]. Moreover, the “denaturant midpoint” value was 3.97 M under setting [4] and 4.29 M under setting [6].

B4: Cyclin-dependent kinase 4 inhibitor D wild type, P55273 (protein)
chain: MLLEEVRAGDRLSGAAARGDVQEVRRLLHRELVHPDALNRFGKTALQVMMFGSTAIALELLKQGASPNVQDTSGTSPVHDAARTGFLDTLKVLVEHGADVNVPDGTGALPIHLAVQEGHTAVVSFLAAESDLHRRDARGLTPLELALQRGAQDLVDILQGHMVAPL
As to B4, the “denaturant midpoint” value (Homo sapiens, pH 7.5, 15 °C, Urea, CD, Na-phospahate 20 mM, reversible: yes) was determined as 2.9 M. Besides, under “Homo sapiens, pH 7.5, Thermal, CD, sodium phosphate 20 mM, reversible: yes”, the Tm is 51.9 °C.

B5: Sphingosine kinase 1 wild type, Q9NYA1 (protein)
chain: MDPAGGPRGVLPRPCRVLVLLNPRGGKGKALQLFRSHVQPLLAEAEISFTLMLTERRNHARELVRSEELGRWDALVVMSGDGLMHEVVNGLMERPDWETAIQKPLCSLPAGSGNALAASLNHYAGYEQVTNEDLLTNCTLLLCRRLLSPMNLLSLHTASGLRLFSVLSLAWGFIADVDLESEKYRRLGEMRFTLGTFLRLAALRTYRGRLAYLPVGRVGSKTPASPVVVQQGPVDAHLVPLEEPVPSHWTVVPDEDFVLVLALLHSHLGSEMFAAPMGRCAAGVMHLFYVRAGVSRAMLLRLFLAMEKGRHMEYECPYLVYVPVVAFRLEPKDGKGVFAVDGELMVSEAVQGQVHPNYFWMVSGCVEPPPSWKPQQMPPPEEPL
For the protein B5, under setting [7], the denaturant m value was found to be 0.42 kcal/mol/M, the “denaturant midpoint” value is 2.86 M and the unfolding free energy was found to be 1.32 kcal/mol. Under setting [8], the denaturant m value came out at 0.6 kcal/mol/M, the “denaturant midpoint” value amounted to 2.94 M and the unfolding free energy turned out to be 1.75 kcal/mol.

B6: Cyclin-dependent kinase inhibitor 2A wild type, P42771 (protein)
chain: MEPAAGSSMEPSADWLATAAARGRVEEVRALLEAGALPNAPNSYGRRPIQVMMMGSARVAELLLLHGAEPNCADPATLTRPVHDAAREGFLDTLVVLHRAGARLDVRDAWGRLPVDLAEELGHRDVARYLRAAAGGTRGSNHARIDAAEGPSDIPD
B6: the “denaturant midpoint” value reads like this: under setting [9], 2.74 M; under setting [10], 1.9 M. Also, the unfolding free energy under setting [9] was 2.7 kcal/mol and the unfolding free energy (Homo sapiens, pH 7.5, 25 °C, Urea, CD, MOPS 10 mM, NaF 50 mM, reversible: Yes) was determined as 2.3 kcal/mol. In addition, the denaturant m value under setting [10] worked out at 2 kcal/mol/M. Further, where the note is “Homo sapiens, pH 7.5, Thermal, CD, HEPES 50 mM, reversible: no”, the melting temperature (Tm) stood at 41.5 °C.

B7: Annexin A5 wild type, P08758 (protein)
chain: MAQVLRGTVTDFPGFDERADAETLRKAMKGLGTDEESILTLLTSRSNAQRQEISAAFKTLFGRDLLDDLKSELTGKFEKLIVALMKPSRLYDAYELKHALKGAGTNEKVLTEIIASRTPEELRAIKQVYEEEYGSSLEDDVVGDTSGYYQRMLVVLLQANRDPDAGIDEAQVEQDAQALFQAGELKWGTDEEKFITIFGTRSVSHLRKVFDKYMTISGFQIEETIDRETSGNLEQLLLAVVKSIRSIPAYLAETLYYAMKGAGTDDHTLIRVMVSRSEIDLFNIRKEFRKNFATSLYSMIKGDTSGDYKKALLLLCGEDD
As for B7, under setting [11], the Tm was 51.9 °C and the “unfolding enthalpy (van 't Hoff)” value is 166 kcal/mol.

B8: Superoxide dismutase [Mn], mitochondrial wild type, P04179 (protein)
chain: MLSRAVCGTSRQLAPVLGYLGSRQKHSLPDLPYDYGALEPHINAQIMQLHHSKHHAAYVNNLNVTEEKYQEALAKGDVTAQIALQPALKFNGGGHINHSIFWTNLSPNGGGEPKGELLEAIKRDFGSFDKFKEKLTAASVGVQGSGWGWLGFNKERGHLQIAACPNQDPLQGTTGLIPLLGIDVWEHAYYLQYKNVRPDYLKAIWNVINWENVTERYMACKK
Turning to B8, under setting [12], the melting temperature (Tm) amounted to 70 °C and the “unfolding enthalpy (calorimetric)” value worked out at 142 kcal/mol.
